Consider 2 molecules from patent publication US20100098682A1 (published 2010).

The target of experiment [1] is T1, Amyloid precursor protein (APP), full length (human, UniProt P05067-4 18-695).
T1 construct: whole, on cells; Used for transfected APP (HeLa), stably expressed APP (HEK293APP, γ30 cells) and endogenous APP of human brain homogenates; also called full length APP; mature, glycosylated APP
Kind of experiment: anti-myc immunoprecipitation from γ30 cell lysates, western blot. On the procedure:
(§1) FIG. 4 is photographs of western blots establishing that the first 102 amino acids of BRI2 are necessary to inhibit the efficient cleavage of C99 and that the same region is necessary for the binding of BRI2 to C99 of APP. […] HC indicates the heavy chain of myc antibody used in the immunoprecipitation.
(§2) Immunoprecipitation and western blot. Unless otherwise noted, all immunoprecipitation procedures were performed at 4° C. The transfected cells were lysed in Buffer A [20 mM Hepes/NaOH pH 7.4, 1 mM EDTA, 1 mM DTT, 150 mM NaCl, 0.5% (w/v) TritonX-100] containing 10% (v/v) Glycerol for 30 min, and the lysates were cleared at 20,000 g for 10 min. For FLAG immunoprecipitation, the cleared lysates were mixed with 20 μl of FLAG-M2 beads (Sigma) for 2 hours, and washed three times with Buffer A. The precipitates were boiled in 60 μl of 2×SDS sample buffer and subjected to western blot. For other immunoprecipitation, the cleared lysates were incubated with antibodies for one hour, and mixed with 20 μl of protein A/G beads (Pierce), washed and processed as above. Human brains (a generous gift of Dr. Peter Davies) were homogenized in Buffer A containing 10% (v/v) Glycerol using a Dounce homogenizer. The proteins were extracted overnight with the protein concentration at 5 mg/ml. Extracted proteins were cleared at 20,000 g for one hour. The supernatants were incubated with the indicated antibodies and protein A/G beads blocked with PBS containing 1% (w/v) BSA. Precipitants were washed and processed as described above.

Experiment [2] addresses T2, C99, COOH-terminal fragment of 99 amino acids of APP (human, UniProt P05067 672-770).
T2 construct: domain: COOH-terminal fragment of 99 amino acids (C99); Produced in cells from APP by processing; also endogenous C99 of human brain
The experiment is described as above. As for the experimental part: as §1, §2

B1: myc-tagged BRI2 C-terminal deletion, first 80 amino acids (other)
chain: MVKVTFNSALAQKEAKKDEPKSGEEALIIPPDAVAVDCKDPDDVVPVGQRRAWCWCMCFGLAFMLAGVILGGAYLYKYFA
notes: Expressed in γ30 cells; also called BRI2 1-80; not shown: myc tag
For the molecule B1, the binding result in experiment [1] and in experiment [2] was “no binding” each time.

B2: myc-tagged BRI2 C-terminal deletion, first 93 amino acids (other)
chain: MVKVTFNSALAQKEAKKDEPKSGEEALIIPPDAVAVDCKDPDDVVPVGQRRAWCWCMCFGLAFMLAGVILGGAYLYKYFALQPDDVYYCGIKY
notes: Expressed in γ30 cells; also called BRI2 1-93; not shown: myc tag
Take B2: the binding result in experiment [1] and in experiment [2] was “no binding” each time.
